Experimental data reported in patent publication US6344203B1, “Mimicking peptides in cancer therapy” (The Austin Research Institute, priority 1995, dated 2002).
Like-named read-outs stand apart in the source and are kept apart here. Blank lines part the entries; values can stand above or below the molecule they belong to. No end group written: not given here.

Tests used:
[1] = system: human anti-Galα(1,3)Gal IgG antibodies; experiment: Elisa: inhibition of anti-Galα(1,3)Gal IgG binding to Galα(1,3)Gal-BSA; details: for Inhibition of binding of anti-Galα(1,3)Gal IgG to Galα(1,3)Gal-BSA: Elisa, peptides at 5 mM (FIG. 8b); for IC50: Table 3, anti-Galα(1,3)Gal antibody (IgG) 87 μgs/ml, read-out: I50 Anti-Galα(1,3)Gal
Description: (§1) 50 μl of either purified anti-Galα(1,3)Ga IgG or biotinylated IB4 lectin was added to the wells, incubated for 45 minutes at 22° C., washed with PBS-0.05% Tween 20, and 50 μl of the relevant IIRP conjugate added and incubated for a further 45 minutes before washing and the addition of 50 μl of substrate (2,2′ Azino-di-B-ethylbenzthiozoline (Zymed, San Francisco, Calif.)) and reading the OD405.
(§2) An Elisa was established to calculate the relative “affinity” of the Gal pep 1 (SEQ ID No. 1) for the IB4 lectin and for human anti-Galα(1,3)Gal antibodies, and to compare these with the affinities for α-galactosyl sugars.
(§3) Peptides or carbohydrates were examined cytofluorographically for their ability to inhibit antibody/lectin binding to the cell surface using a FACSCAN flow cytometer (Becton Dickinson, USA)[20]: 25 μl of inhibitor was mixed with 25 μl of antibody of lectin and incubated at 22° C. for 3 hours (peptides) or at 4° C. for 16 hours (carbohydrates)[14], prior to addition of appropriate targets. An Elisa assay was used to calculate the relative affinities of the sugars or the peptides for both IB4 lectin and antibodies, and were defined as the molar concentration of inhibitor giving 50% inhibition of the maximal binding of lectin or antibody.

IB4 lectin [2] = molecular target: T1, IB4 lectin (Griffonia simplicifolia, UniProt Q8W1R6); experiment: Elisa: inhibition of IB4 lectin binding to Galα(1,3)Gal-BSA; details: for Inhibition of binding of IB4 to Galα(1,3)Gal-BSA: Elisa, peptide concentration 5 mM (FIG. 8a)
T1 sequence (Q8W1R6 1-247): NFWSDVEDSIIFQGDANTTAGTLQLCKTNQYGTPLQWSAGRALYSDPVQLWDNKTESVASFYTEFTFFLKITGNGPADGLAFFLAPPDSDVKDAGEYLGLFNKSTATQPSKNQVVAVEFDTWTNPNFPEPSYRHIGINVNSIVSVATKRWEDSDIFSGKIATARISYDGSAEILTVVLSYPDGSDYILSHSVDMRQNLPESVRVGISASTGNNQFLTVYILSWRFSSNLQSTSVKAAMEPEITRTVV
Description: as §1, §2, §3

IB4 lectin [3] = molecular target: T1, IB4 lectin; experiment: Cytofluorographic inhibition of IB4 lectin binding to PIEC cells; type: cell-based; details: peptides at 5 mM (FIG. 7)
Description: FIGS. 3(A-C). […] (A); Staining of PIEC cells with IB4 lectin (1 μg/ml). (B) Staining of PIEC cells with NHS (final dilution of 1/50) and anti-human Ig. (C) Staining of PBL with IB4 lectin (μg/ml). Peptides were used at 5 mM (A and C) or at 20 mM (B). In each panel profile “a” represents binding in the presence of Gal pep 1 (SEQ ID No. 1), and profile “b” the binding in the presence of CD48 pep 1 (SEQ ID No. 11).
FIGS. 6(A-B). […] Varying concentrations of peptides (shown in mM on horizontal axis) were explained for ability to inhibit the binding of IB4 lectin (1 μg/ml) to tie PIEC cells using cytofluorographic analysis. (a) Gal pep 1 (SEQ ID No. 1) (□), Muc pep 1 (SEQ ID No. 15) (∘).
FIG. 7. […] All peptides used at 5 mM, using cytofluorograhic analysis. Inhibition calculated relative to no peptide control.
(§4) The binding of lectin or antibody to the surface of pig cells was detected by hemagglutination, cytotoxicity or flow cytometry using the FACSCAN flow cytometer (Becton Dickinson, Mountain View, Calif.).
as §3

PIEC cells = experiment: Inhibition of cytotoxicity of NHS and complement on PIEC; type: cell-based, pig; details: peptide 10 mM to 2.5 mM, NHS 1/25
Description: FIG. 4. Inhibition of cytotoxicity due to natural antibody and complement by Gal pep 1 (SEQ ID No. 1). Varying concentrations of Gal pep 1 (∘) or CD48 pep 1 (♦) (shown in mM on horizontal axis) were examined in a cytotoxicity assay using NHS (final dilution of 1/25) and PEEC cells as targets.
as §4
Human cytotoxic antibodies directly damage pig endothelial cells in a pig-to-human xenograft, therefore the ability of Gal pep 1 (SEQ ID No. 1) to inhibit the cytotoxicity of human antibodies on PIEC in vitro was tested; Gal pep 1 inhibited the cytotoxicity of NHS (10 mM to 2.5 mM), whereas CD48 pep 1 (SEQ ID No. 11) had no effect (FIG. 4).

[4] = molecular target: IB4 lectin from Griffonia simplicifolia (Griffonia simplicifolia); experiment: competition ELISA (I50): peptide inhibits biotinylated IB4 binding to Galα(1,3)Gal-BSA
[5] = molecular target: IB4 lectin from Griffonia simplicifolia (Griffonia simplicifolia); experiment: flow cytometry, IB4 on pig PBL
[6] = molecular target: BC1 anti-MUC1 monoclonal antibody; experiment: flow cytometry, competition with MUC1 on MUC1+3T3 (MOR5) cells
[7] = molecular target: purified human anti-Galα(1,3)Gal IgG antibodies (human); experiment: competition ELISA (I50): peptide inhibits anti-Galα(1,3)Gal IgG binding to Galα(1,3)Gal-BSA
[8] = molecular target: human natural antibodies in normal human serum (NHS) (human); experiment: flow cytometry, NHS (1/50) natural antibodies on PIEC cells; no inhibition at lower concentrations
[9] = molecular target: IB4 lectin from Griffonia simplicifolia (Griffonia simplicifolia); experiment: inhibition of IB4 reaction with galactomannan (not shown)
[10] = molecular target: human natural antibodies in normal human serum (NHS) (human); experiment: cell-based or functional assay
[11] = molecular target: IB4 lectin from Griffonia simplicifolia (Griffonia simplicifolia); experiment: flow cytometry, IB4 (1 µg/ml) on PIEC cells

Inhibition of binding of anti-Galα(1,3)Gal IgG to Galα(1,3)Gal-BSA [1]: had no effect
Molecule: RYHHYSSNFSIPKANHSHSGDYYCKGSL [FcR pep 1, control peptide, MURINE FCRIIβ2]

Molecule: TECKHKKGKVVSGKVLSY [CD4 pep 1, control peptide, murine CD4]
Inhibition of binding of anti-Galα(1,3)Gal IgG to Galα(1,3)Gal-BSA [1]: had no effect
Inhibition of binding of IB4 to Galα(1,3)Gal-BSA (IB4 lectin [2]): did not inhibit

Molecule: TGFNQYKTEAASRVNL [Muc pep 8, human Muc1 COOH to VNTR]
Inhibition of IB4 lectin binding to PIEC cells (IB4 lectin [3]): inhibited

Molecule: TSSASTGHATPLPVTP [Muc pep 11]
Inhibition of binding of anti-Galα(1,3)Gal IgG to Galα(1,3)Gal-BSA [1]: inhibited
IC50 [1]: 2500 µM
Inhibition of binding of IB4 to Galα(1,3)Gal-BSA (IB4 lectin [2]): complete inhibition
Inhibition of IB4 lectin binding to PIEC cells (IB4 lectin [3]): inhibited

Molecule: WEADLHWS [Scram pep 1]
IC50 [1]: > 20000 µM

Molecule: YTFDQKIVEWDSRKSKC [CD48 pep 1]
IC50 (IB4 lectin [2]): > 20000 µM
IC50 (IB4 lectin [2]; read-out: I50 IB4, Table 3, biotinylated IB4 lectin 6.25 μgs/ml): > 20000 µM
Inhibition of cytotoxicity of NHS on PIEC (PIEC cells): had no effect

IC50 [4]: 1250 µM
Molecule: TGSGHASSTPGGEKETSAQRSSVP [Muc pep 6]

peptide concentration that blocked IB4 binding to PBL [5]: 5 mM
IC50 [4]: 300 µM
lowest peptide concentration that inhibited BC1 binding to MUC1+3T3 cells [6]: 0.156 mM
IC50 [7]: 10000 µM
peptide concentration at which inhibition occurred [8]: 20 mM
IC50 [9]: 5000 µM
blocking of hemagglutination of pig RBC by NHS [10]: 5 mM
Molecule: DAHWESWL [Gal pep 1 (DAHWESWL), synthetic peptide]

IC50 [4]: 156 µM
IC50 [7]: 2500 µM
Molecule: TSSASTGHATPLPVTP [Muc pep 11]

IC50 [4]: 78 µM
concentration down to which inhibition was almost complete [11]: 0.125 mM
IC50 [7]: 2500 µM
Molecule: CPAHGVTSAPDTRPAPGSTAP [Muc pep 1]

IC50 [4]: > 20000 µM
IC50 [7]: > 20000 µM
Molecule: WEADLHWS [Scram pep 1]

IC50 [4]: > 20000 µM
IC50 [7]: > 20000 µM
Molecule: YTFDQKIVEWDSRKSKC [CD48 pep 1]
